Tested on: GST-GFP fusion protein expressed from pJB-HTS-GFP (GST, hexa-histidine tag, thrombin cleavage site LVPRGS, GFP) [GST: P08515]
Sequence (P08515 whole entry, looked up, the tested form may be a part): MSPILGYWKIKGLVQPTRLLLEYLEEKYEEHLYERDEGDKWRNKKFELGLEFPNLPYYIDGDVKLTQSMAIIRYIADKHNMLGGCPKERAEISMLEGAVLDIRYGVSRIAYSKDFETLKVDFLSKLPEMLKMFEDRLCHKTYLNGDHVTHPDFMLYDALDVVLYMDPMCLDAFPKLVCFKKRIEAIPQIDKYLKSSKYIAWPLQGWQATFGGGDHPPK

thrombin
Michaelis-Menten constant (Km) of thrombin cleavage of GST-GFP associated with PEGDA-GSH microspheres, SDS-PAGE densitometry: significantly increased from approximately 0.18 µM to 0.30 µM
Michaelis-Menten constant (Km) of thrombin cleavage of free GST-GFP, SDS-PAGE densitometry: significantly increased from approximately 0.18 µM to 0.30 µM

From patent US20150258211
